Reference: patent publication US20240117030A1 (Pfizer, published 2024)
Substitutions are numbered along the chain they refer to. One block for each binder: values may come before it.

Columns and labels:
human IL-13 [1] = molecular target: T1, human IL-13 (human, UniProt P35225 35-146); experiment: SPR 37°C, antibody captured by anti-human IgG, human IL-13 1.56-50 nM
T1 construct: mature; The Pfizer protein carries an N-terminal FLAG tag; bioassays used R&D Systems IL-13; also called hu IL-13; rHu IL-13

human IL-13 [2] = molecular target: T1, human IL-13; experiment: cell-based or functional assay
human TSLP (long form) [3] = molecular target: T2, human TSLP (long form) (human, UniProt Q969D9 29-159, Biotinylated on the Avi tag in some assays; glycosylated (Expi293F expression)); experiment: cell-based or functional assay
human IL-4 [4] = molecular target: T3, human IL-4 (human, UniProt P05112 25-153); experiment: cell-based or functional assay
T3 sequence (looked up): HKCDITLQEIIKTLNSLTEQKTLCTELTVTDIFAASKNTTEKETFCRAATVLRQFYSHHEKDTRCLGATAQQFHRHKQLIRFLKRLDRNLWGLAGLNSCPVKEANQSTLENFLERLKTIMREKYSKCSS

human IL-13 [5] = molecular target: T1, human IL-13; experiment: cell-based or functional assay; remark: listed apart in the source
[6] = molecular target: T4, recombinant human IL-33 (R&D Systems 3625-IL), reduced with DTT (human, UniProt O95760 112-270, limits assumed); experiment: cell-based or functional assay
T4 sequence (looked up): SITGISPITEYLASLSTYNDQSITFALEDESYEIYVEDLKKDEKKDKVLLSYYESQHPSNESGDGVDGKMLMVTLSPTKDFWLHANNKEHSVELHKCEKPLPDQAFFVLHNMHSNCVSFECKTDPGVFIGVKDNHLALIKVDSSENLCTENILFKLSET

human IL-4 [7] = molecular target: T5, human IL-4 (human, UniProt P05112 25-153); experiment: cell-based or functional assay; remark: listed apart in the source
T5 sequence (looked up): T3 sequence (looked up)

human IL-13 [8] = molecular target: human IL-13 (human, UniProt P35225 35-146); experiment: cell-based or functional assay; remark: listed apart in the source
human TSLP (long form) [9] = molecular target: T2, human TSLP (long form); experiment: bridging sandwich ELISA: human TSLP coated, Tri-Fab-Fc titrated, IL-13-FLAG added, detected with HRP anti-FLAG (OD450nm)

B1: IL13-0259 (antibody, IgG1, V domains shown)
VH: EVQLVESGGGLVQPGGSLRLSCAASGFTFSSYAMSWVRQAPGKGLEWVASISTGDTTYYPDSVKGRFTISRDNAKNSLYLQMNSLRAEDTAVYYCARNEGYYFGLTQWGRGTLVTVSS
VL: DIQMTQSPSSLSASVGDRVTITCRASQSVDHFGWSLVHWYQQKPGKAPKLLIYRASNLESGVPSRFSGSGSGTDFTLTISSLQPEDFATYYCQQSNEDPWTFGGGTKVEIK
notes: IgG1 effector-null/kappa IgG
Kd (human IL-13 [1]): 0.0717 nM
CD23: Fold versus IL13-0001 (human IL-13 [2]): 0.81 fold
CD23 IC50 [pM] Ave. n = 2 (human IL-13 [2]): 7.4 pM

B2: IL13-0270 (antibody, V domains shown)
VH: B1 VH with Q107L, R110Q
VL: B1 VL with Q27E, S56D, N57S, S60T
notes: IgG1 effector-null/kappa IgG; also called IL13433-0270
Kd (human IL-13 [1]): 0.0932 nM
CD23: Fold versus IL13-0001 (human IL-13 [2]): 0.67 fold
CD23 IC50 [pM] Ave. n = 2 (human IL-13 [2]): 9 pM

B3: IL13-0271 (antibody, IgG1, V domains shown)
VH: B1 VH
VL: B1 VL with Q27E, S56D, N57S, S60T
notes: IgG1 effector-null/kappa IgG; also called IL13433-0271
Kd (human IL-13 [1]): 0.0736 nM
CD23: Fold versus IL13-0001 (human IL-13 [2]): 1.01 fold
CD23 IC50 [pM] Ave. n = 2 (human IL-13 [2]): 5.9 pM

B5: IL33-0721 (antibody, IgG1, V domains shown)
VH: EVQLVESGGGLVQPGGSLRLSCAASGFEFSHYWMYWVRQAPGKGLEWVAAITPNAGEDYYPESVKGRFTISRDNAKNSLYLQMNSLRAEDTAVYYCARGYYRYTKYSLGYWGQGTLVTVSS
VL: DIQMTQSPSSLSASVGDRVTITCRASQPIHQFLDWYQQKPGKAPKLLIYFGHILQEGVPSRFSGSGSGTDFTLTISSLQPEDFATYYCFQYKQGWSFGGGTKVEIK
IC50 [nM] versus reduced human IL-33 (R&D), IC50 (AVE) [6]: 0.026 nM

B8: IL413TSLP-0007 (trispecific antibody, human IgG1, kappa, lambda)
heavy: EVTLRESGPALVKPTQTLTLTCTFSGFSLSNFGEGLSWIRQPPGKGLEWLAHIYWDDDKRYNPSLKSRLTISKDTSRNQVVLTMTNMDPVDTATYYCARRETVFYWYFDVWGQGTTVTVSSASTKGPSVFPEAPSSKSTSGGTAALGCLVKDYFPEPVTVSWNSGALTSGVHTFPAVLQSSGLYSLGSVVTVPSSSLGTQTYICNVNHKPSNTKVDKKVEPKSCDKTHTCPPCPAPEAAGAPSVFLFPPKPKDTLMISRTPEVTCVVVDVSHEDPEVKFNWYVDGVEVHNAKTKPREEQYNSTYRVVSVLTVLHQDWLNGKEYKCKVSNKALPAPIEKTISKAKGQPREPQVYTLPPCREEMTKNQVSLSCAVKGFYPSDIAVEWESNGQPENNYKTTPPVLDSDGSFFLVSKLTVDKSRWQQGNVFSCSVMHEALHNHYTQKSLSLSPGK
chain 1: SYVLTQPPSVSVAPGQTARITCGGNNLGSKSVHWYQQKPGQAPVLVVYDDSDRPSWIPERFSGSNSGNTATLTISRGEAGDEADYYCQVWDSSSDHVVFGGGTKLTVLASTKGPSVFPLAPSSKSTSGGTAALGCLVKDYFPEPVTVSWNSGALTSGVHTFPAVLQSSGLYSLSSVVTVPSSSLGTQTYICNVNHKPSNTKVDKKVEPKSCGGGGSEVQLVESGGGLVQPGGSLRLSCAASGFTFSSYAMSWVRQAPGKGLEWVASISSGDTTYYPDSVKGRFTISRDNAKNSLYLQMNSLRAEDTAVYYCARNEGYYFGLTLWGQGTLVTVSSASTKGPSVFPKAPSSKSTSGGTAALGCLVKDYFPEPVTVSWNSGALTSGVHTFPAVLQSSGLYSLSSSVTVPSSSLGTQTYICNVNHKPSNTKVDKKVEPKSCDKTHTCPPCPAPEAAGAPSVFLFPPKPKDTLMISRTPEVTCVVVDVSHEDPEVKFNWYVDGVEVHNAKTKPREEQYNSTYRVVSVLTVLHQDWLNGKEYKCKVSNKALPAPIEKTISKAKGQPREPQVCTLPPSREEMTKNQVSLWCLVKGFYPSDIAVEWESNGQPENNYKTTPPVLDSDGSFFLYSKLTVDKSRWQQGNVFSCSVMHEALHNHYTQKSLSLSPGK
light 1: DIQMTQSPSSLSASVGDRVTITCKASQSVDEDGDSYMNWYQQKPGKAPKLLIYAASNLESGVPSRFSGSGSGTDFTLTISSLQPEDFATYYCQQSNEDPPTFGGGTKVEIKRTVAAPSVFIFPPSDEQLKSGTASVSCLLNNFYPREAKVQWKVDNALQSGNSQESVTEQDSKDSTYSLKSTLTLSKADYEKHKVYACEVTHQGLSSPVTKSFNRGEC
light 2: B8 light 1 with Q27E, E31H, D32F, D34W, Y36L, M37V, N38H, A54R, P100W, K180D
chain 2: QMQLVESGGGVVQPGRSLRLSCAASGFTFRTYGMHWVRQAPGKGLEWVAVIWYDGSNKHYADSVKGRFTITRDNSKNTLNLQMNSLRAEDTAVYYCARAPQWELVHEAFDIWGQGTMVTVSSGQPKAAPSVTLFPPSSEELQANKATLVCLISDFYPGAVTVAWKADSSPVKAGVETTTPSKQSNNKYAASSYLSLTPEQWKSHRSYSCQVTHEGSTVEKTVAPTECS
EC50 (read off the curve) (human TSLP (long form) [9]): ~0.6 nM

Now from value to binder:

fold lower potency than the mAb (TSLP-0855), monocyte TARC bioassay (human TSLP (long form) [3]): ~2.5 fold
IC50, IL-4-induced CCL17 secretion by 769-P cells (human IL-4 [4]): 0.139 nM
IC50, IL-13-induced CCL17 secretion by 769-P cells (human IL-13 [5]): 0.811 nM
B4: IL413TSLP-1028 (trispecific antibody)
heavy: not shown
chain 1: DIQMTQSPSSLSASVGDRVTITCKASESVDHFGWSLVHWYQQKPGKAPKLLIYRASNLESGVPSRFSGSGSGTDFTLTISSLQPEDFATYYCQQSNEDPWTFGGGTKVEIKRTVAAPSVFIFPPSDEQLKSGTASVVCLLNNFYPREAKVQWKVDNALQSGNSQESVTEQDSKDSTYSLSSTLTLSKADYEKHKVYACEVTHQGLSSPVTKSFNRGECGGGGSEVTLRESGPALVKPTQTLTLTCTFSGFSLSNFGEGLSWIRQPPGKGLEWLAHIYWDDDKRYNPSLKSRLTISKDTSRNQVVLTMTNMDPVDTATYYCARRETVFYWYFDVWGQGTTVTVSSASTKGPSVFPLAPSSKSTSGGTAALGCLVKDYFPEPVTVSWNSGALTSGVHTFPAVLQSSGLYSLSSVVTVPSSSLGTQTYICNVNHKPSNTKVDKKVEPKSCEKTHTCPPCPAPEAAGAPSVFLFPPKPKDTLMISRTPEVTCVVVDVSHEDPEVKFNWYVDGVEVHNAKTKPREEQYNSTYRVVSVLTVLHQDWLNGKEYKCKVSNKALPAPIEKTISKAKGQPREPQVYTLPPSREEMTKNQVSLTCEVKGFYPSDIAVEWESNGQPENNYKTTPPVLDSDGSFFLYSKLTVDKSRWQQGNVFSCSVLHEALHSHYTQKSLSLSPGK
light 1: SYVLTQPPSVSVAPGQTARITCGGNNLGSKSVHWYQQKPGQAPVLVVYDDSDRPSWIPERFSGSNSGNTATLTISRGEAGDEADYYCQVWDSSSKHVVFGGGTKLTVLGQPKAAPSVTLFPPSSEELQANKATLVCLISDFYPGAVTVAWKADSSPVKAGVETTTPSKQSNNKYAASSYLSLTPEQWKSHRSYSCQVTHEGSTVEKTVAPTECS
light 2: B8 light 1 with K24R, D32E, E97K, S137V, K180S
chain 2: EVQLVESGGGLVQPGGSLRLSCAASGFTFSSYAMSWVRQAPGKGLEWVASISSGDTTYYPDSVKGRFTISRDNAKNSLYLQMNSLRAEDTAVYYCARNEGYYFGLTLWGQGTLVTVSSASTKGPSVFPLAPSSKSTSGGTAALGCLVKDYFPEPVTVSWNSGALTSGVHTFPAVLQSSGLYSLSSVVTVPSSSLGTQTYICNVNHKPSNTKVDKKVEPKSC

a-hIL-4 IC50 [pM] (human IL-4 [7]): 6.11 pM
a-hIL-13 IC50 [pM] (human IL-13 [8]): 13.7 pM
B6: IL413TSLP-0251 (other)
heavy: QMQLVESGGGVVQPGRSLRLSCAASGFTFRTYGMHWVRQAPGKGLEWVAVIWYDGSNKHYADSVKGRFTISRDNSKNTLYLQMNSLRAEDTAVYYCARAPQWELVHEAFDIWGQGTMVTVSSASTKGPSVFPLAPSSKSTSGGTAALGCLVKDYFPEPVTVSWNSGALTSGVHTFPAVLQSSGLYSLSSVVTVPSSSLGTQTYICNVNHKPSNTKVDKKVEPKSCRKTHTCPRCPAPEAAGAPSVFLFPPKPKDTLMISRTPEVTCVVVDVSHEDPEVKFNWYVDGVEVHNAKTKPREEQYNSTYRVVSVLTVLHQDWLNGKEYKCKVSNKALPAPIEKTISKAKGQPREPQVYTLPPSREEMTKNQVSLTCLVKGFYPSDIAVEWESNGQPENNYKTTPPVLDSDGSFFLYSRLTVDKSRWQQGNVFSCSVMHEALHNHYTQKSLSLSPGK
chain 1: EVQLVESGGGLVQPGGSLRLSCAASGFTFSSYAMSWVRQAPGKGLEWVASISSGDTTYYPDSVKGRFTISRDNAKNSLYLQMNSLRAEDTAVYYCARNEGYYFGLTLWGQGTLVTVSSRTVAAPSVFIFPPSDEQLKSGTASVVCLLNNFYPREAKVQWKVDNALQSGNSQESVTEQDSKDSTYSLSSTLTLSKADYEKHKVYACEVTHQGLSSPVTKSFNRGECGGGGSEVTLRESGPALVKPTQTLTLTCTFSGFSLSNFGEGLSWIRQPPGKGLEWLAHIYWDDDKRYNPSLKSRLTISKDTSRNQVVLTMTNMDPVDTATYYCARRETVFYWYFDVWGQGTTVTVSSASTKGPSVFPLAPSSKSTSGGTAALGCLVKDYFPEPVTVSWNSGALTSGVHTFPAVLQSSGLYSLSSVVTVPSSSLGTQTYICNVNHKPSNTKVDKKVEPKSCEKTHTCPECPAPEAAGAPSVFLFPPKPKDTLMISRTPEVTCVVVDVSHEDPEVKFNWYVDGVEVHNAKTKPREEQYNSTYRVVSVLTVLHQDWLNGKEYKCKVSNKALPAPIEKTISKAKGQPREPQVYTLPPSREEMTKNQVSLTCEVKGFYPSDIAVEWESNGQPENNYKTTPPVLDSDGSFFLYSKLTVDKSRWQQGNVFSCSVMHEALHNHYTQKSLSLSPGK
light 1: B4 light 1 with K95D
light 2: B8 light 1 with S137V, K180S
chain 2: DIQMTQSPSSLSASVGDRVTITCKASESVDHFGWSLVHWYQQKPGKAPKLLIYRASNLESGVPSRFSGSGSGTDFTLTISSLQPEDFATYYCQQSNEDPWTFGGGTKVEIKASTKGPSVFPLAPSSKSTSGGTAALGCLVKDYFPEPVTVSWNSGALTSGVHTFPAVLQSSGLYSLSSVVTVPSSSLGTQTYICNVNHKPSNTKVDKKVEPKSC

a-hIL-4 IC50 [pM] (human IL-4 [7]): 3.65 pM
a-hIL-13 IC50 [pM] (human IL-13 [8]): 11.2 pM
B7: IL413TSLP-0252 (other)
heavy: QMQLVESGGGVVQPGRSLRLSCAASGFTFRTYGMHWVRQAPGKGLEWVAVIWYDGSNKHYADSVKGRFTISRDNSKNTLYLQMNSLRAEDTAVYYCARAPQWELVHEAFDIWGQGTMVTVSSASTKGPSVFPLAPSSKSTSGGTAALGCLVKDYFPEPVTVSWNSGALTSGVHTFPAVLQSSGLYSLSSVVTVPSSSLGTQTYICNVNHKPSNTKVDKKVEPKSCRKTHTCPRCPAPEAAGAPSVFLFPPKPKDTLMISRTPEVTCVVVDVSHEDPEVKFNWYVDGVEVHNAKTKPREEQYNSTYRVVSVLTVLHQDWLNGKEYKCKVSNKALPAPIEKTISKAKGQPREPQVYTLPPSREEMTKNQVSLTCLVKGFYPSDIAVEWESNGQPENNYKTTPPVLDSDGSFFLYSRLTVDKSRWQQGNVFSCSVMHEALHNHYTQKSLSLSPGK
chain 1: B4 chain 1 with P455E, L655M, S661N
light 1: B4 light 1 with K95D
light 2: B8 light 1 with S137V, K180S
chain 2: B4 chain 2
